Paper PMC7948479, “Allostery in the nitric oxide dioxygenase mechanism of flavohemoglobin” (The Journal of Biological Chemistry, 2020)
Read-outs that look alike come from different tables or passages of the source.

Experiments:
[1] = tested on: flavoHb heme (Fe^2+ / Fe^3+); details: for Kd: from slow phase; for time for 90% activity recovery following NO binding: calculated from k(NO)
Method: FAD and heme reduction were monitored by following the changes in flavoHb absorbance at 460 and 430 nm, respectively, with stopped-flow rapid mixing of 50 μM NADH and 10 μM flavoHb in N2-purged buffer ([4]). O2, NO, and CO association rate constants were determined by photolyzing 50 μM of the respective ferrous flavoHb species with a 300-ns pulse from a 577-nm laser and by spectrophotometrically following ligand reassociation in O2-, NO-, or CO-saturated buffer unless otherwise indicated ([4], [5]). […] Binding of NO was measured by the change of absorbance at 422 nm by applying a difference extinction coefficient of 0.040 μM^−1 cm^−1. O2 and CO dissociation rate constants were determined by stopped-flow rapid mixing with either CO or NO displacement ([4], [5]). The cuvette path length was 1.0 cm. All reactions were at 20 °C in filtered 100 mM sodium phosphate buffer, pH 7.0, containing 0.3 mM EDTA. Catalase (1000 U/ml) was included in all reactions containing O2 to scavenge H2O2 produced by the NADH oxidase activity of flavoHb and to regenerate O2.

[2] = NO reductase activity (anaerobic); format: biochemical
Method: (§1) NADH oxidase activity was followed spectrophotometrically at 340 nm in a 1.0-ml cuvette containing 90 mM Tris chloride buffer, pH 8.2, 100 μM NADH, 200 μM O2, 0.1 μM FAD, 100 μg/ml BSA, and 0.3 mM EDTA and incubated at 37 °C. […] TMAO reductase activity was assayed by following the absorbance decrease at 340 nm in a 1.0-ml anaerobic reaction containing 12 U Aspergillus niger glucose oxidase, 5 mM glucose, 260 U catalase, 400 mM TMAO, 100 μM NADH, 0.1 μM FAD, 100 μg/ml BSA, and 0.3 mM EDTA in 90 mM Tris chloride pH 8.2 and incubated at 37 °C. […] Methyl viologen reductase activity was assayed by following the formation of the blue cation radical at 603 nm and by applying an extinction coefficient of 13,300 M^−1 cm^−1 in a 1.0-ml anaerobic reaction buffered with 10 mM potassium phosphate, pH 7.0, and containing 12 U glucose oxidase, 5 mM glucose, 260 U catalase, 100 μM NADH, 0.1 μM FAD, 100 μg/ml BSA, 0.3 mM EDTA, and 200 mM sodium chloride and incubated at 37 °C. NO reductase activity was assayed amperometrically at 37 °C in a 1.0-ml anaerobic reaction containing 2 μM NO, 100 μM NADH, 0.1 μM FAD, 12 U glucose oxidase, 5 mM glucose, 260 U catalase, 100 μg/ml BSA, and 0.3 mM EDTA buffered with 10 mM potassium phosphate pH 7.0. CO effects were tested at a final concentration of 50 μM as diluted from a 1 mM stock in water. […]

Ngb = Ngb reductase activity; format: biochemical, murine; details: 37 °C; 5 μM Ngb; anaerobic
Description: Reagents were purchased from Sigma-Aldrich Chemical Co (St Louis, MO, USA) unless otherwise stated. DNA primers were synthesized at the University of Cincinnati Medical Center DNA facility. Praxair (Bethlehem, PA, USA) was the supplier of 99.993% O2, 99.999% CO, and 99.98% N2. Bovine liver catalase (260,000 U/ml) was obtained from Roche Applied Science. Recombinant rat cytochrome b5 (soluble form) and murine Ngb were expressed in E. coli and purified essentially as described ([10], [70]). NADH purity (≥95%) was assessed by the ratio of the 340 to 260 nm absorbance with a value of 0.437 equal to 100% reduced.

TMAO reductase activity = format: biochemical; details: 37 °C; 400 mM TMAO; anaerobic
Method: as §1

E. coli flavoHb = E. coli flavoHb (Escherichia coli, UniProt P24232); details: cited from earlier work
[3] = tested on: flavoHb heme (Fe^2+ / Fe^3+); details: cited from earlier work
[4] = Fe2+ CO, 100 µM CO in the presence of 0.6 mM N2
[5] = Fe2+ O2, 100 µM CO in the presence of 1 mM O2

B1: WT: wild-type E. coli flavohemoglobin (flavoHb), an NO dioxygenase (NOD) (protein, UniProt P24232 1-396, looked up)
Flavohemoprotein: MLDAQTIATVKATIPLLVETGPKLTAHFYDRMFTHNPELKEIFNMSNQRNGDQREALFNAIAAYASNIENLPALLPAVEKIAQKHTSFQIKPEQYNIVGEHLLATLDEMFSPGQEVLDAWGKAYGVLANVFINREAEIYNENASKAGGWEGTRDFRIVAKTPRSALITSFELEPVDGGAVAEYRPGQYLGVWLKPEGFPHQEIRQYSLTRKPDGKGYRIAVKREEGGQVSNWLHNHANVGDVVKLVAPAGDFFMAVADDTPVTLISAGVGQTPMLAMLDTLAKAGHTAQVNWFHAAENGDVHAFADEVKELGQSLPRFTAHTWYRQPSEADRAKGQFDSEGLMDLSKLEGAFSDPTMQFYLCGPVGFMQFTAKQLVDLGVKQENIHYECFGPHKVL
k' fast [1, 4]: 2.9e+07 M⁻¹ s⁻¹
k' slow [1, 4]: 2.7e+06 M⁻¹ s⁻¹
τT [1, 4]: 500 ± 100 µs
k' fast [1, 5]: 2.9e+07 M⁻¹ s⁻¹
k' slow [1, 5]: 1.9e+06 M⁻¹ s⁻¹
τT [1, 5]: 70 ± 10 µs
k′fast ([1]; Fe^2+ CO, 20 °C): 1.4e+07 M⁻¹ s⁻¹
k′slow ([1]; Fe^2+ CO, 20 °C): 1.4e+06 M⁻¹ s⁻¹
τT ([1]; Fe^2+ CO, 20 °C): 175 ± 25 μs
Kd ([1]; Fe^2+ CO, 20 °C): 12 to 39 nM
k′fast ([1]; Fe^2+ NO, 20 °C): 3.1e+07 M⁻¹ s⁻¹
k′slow ([1]; Fe^2+ NO, 20 °C): 8.5e+06 M⁻¹ s⁻¹
τT ([1]; Fe^2+ NO, 20 °C): 40 ± 10 μs
Kd ([1]; Fe^2+ NO): 0.024 nM
k′fast ([1]; Fe^2+ O2, 20 °C): 3.3e+07 M⁻¹ s⁻¹
k′slow ([1]; Fe^2+ O2, 20 °C): 1.4e+07 M⁻¹ s⁻¹
τT ([1]; Fe^2+ O2, 20 °C): 70 ± 5 μs
k ([1]; Fe^2+ O2 dissociation, 20 °C): 0.20 s⁻¹
k′fast ([1]; Fe^3+ NO, 20 °C): 4.6e+07 M⁻¹ s⁻¹
k′slow ([1]; Fe^3+ NO, 20 °C): 1.2e+07 M⁻¹ s⁻¹
τT ([1]; Fe^3+ NO, 20 °C): 18 ± 3 μs
Kd ([1]; Fe^3+ NO): 330000 nM
time for 90% activity recovery following NO binding ([1]; ferric NO form): 0.6 ms
time for 90% activity recovery following NO binding ([1]; ferrous NO species): 1.15e+07 ms
NO reductase activity ([2]; 37 °C, 2 μM NO, anaerobic): 0.19 s⁻¹
time for 90% reversal in the steady state ([2]; with NO elimination via reduction): 23 s
Ngb reductase activity (Ngb): 0.20 s⁻¹
TMAO reductase activity (TMAO reductase activity): 0.21 s⁻¹
kET previously reported (E. coli flavoHb): 136 s⁻¹
k ([3]; Fe^2+ NO dissociation): 0.0002 (4) s^−1
k ([3]; Fe^3+ NO dissociation): ∼4000 (4) s^−1
